From article PMC11652881

How the values were obtained:
[1] = molecular target: recombinant wild-type cardiac actin (WTRec-ACTC), as F-actin filaments (human) (UniProt P68032); assay: TIRF microscopy of labelled tropomyosin binding along actin filaments; rhodamine phalloidin-labelled ACTC filaments held on bovine ventricular HMM (0.5 mg/ml) on a nitrocellulose-coated coverslip; Alexa-Tm added while recording at 10 frames per second; fluorescence along a filament normalised from 1 to 100 percent; elongation rate = slope of the binding curve from 0 to 15 s
[2] = molecular target: recombinant wild-type cardiac actin (WTRec-ACTC), as F-actin filaments (human) (UniProt P68032); assay: co-sedimentation; 7 uM F-actin with 0.1 to 2 uM tropomyosin in 100 mM KCl, 5 mM MgCl2, 20 mM Tris pH 8, 1 h at 25 C; 100,000 rpm 20 min (TLA100); Tm in the pellet by SDS-PAGE densitometry, normalised 0-100; fit to specific binding with Hill slope

| Substance | Elongation Rate [1] [s⁻¹] | Kd [2] [nM] |
| --- | --- | --- |
| Alexa488-labeled tropomyosin (bovine ventricular tropomyosin modified on Cys-190) (from UniProt Q5KR49 1-284) (natural protein) | 4.56 |  |
| tropomyosin purified from bovine ventricular ether powder (from UniProt Q5KR49 1-284) |  | 533 |
